Broadly, the stoichiometry N is a count of units in the complex or per binding partner.

For this experiment, the target named is ligand-binding domain (LBD) of rat GluK1 (rat). Description: crystal structure.

As to “ligand-binding domain (LBD) of rat GluK1 (domain or fragment)”, the stoichiometry N was determined as 2.
